Source: patent publication US20220204580A1 (AstraZeneca / MedImmune, published 2022)
Numbered stars: 1 amine (or outer) side, 2 acyl side, 3 side chain; on linkers, the order of the positions; unused ones are H or OH. Bridge positions count the residues as written; N and C are the ends. Square brackets hold non-standard residues; d marks the D form. Side chains are listed from the residue outwards. Ends that are not written are not given here. * marks the point of attachment. C18 diacid = O=C(O)CCCCCCCCCCCCCCCCC(=O)*; γGlu = O=C(O)[C@H](CCC(=O)[*:2])N[*:1]; AEEA = NCCOCCOCC(=O)O; Aib = CC(C)(N)C(=O)O

T1: human amylin receptor (calcitonin receptor co-expressed with receptor activity modifying protein, RAMP3) (human, UniProt P30988 25-474; O60896 24-148)
T1 sequence (looked up) 1: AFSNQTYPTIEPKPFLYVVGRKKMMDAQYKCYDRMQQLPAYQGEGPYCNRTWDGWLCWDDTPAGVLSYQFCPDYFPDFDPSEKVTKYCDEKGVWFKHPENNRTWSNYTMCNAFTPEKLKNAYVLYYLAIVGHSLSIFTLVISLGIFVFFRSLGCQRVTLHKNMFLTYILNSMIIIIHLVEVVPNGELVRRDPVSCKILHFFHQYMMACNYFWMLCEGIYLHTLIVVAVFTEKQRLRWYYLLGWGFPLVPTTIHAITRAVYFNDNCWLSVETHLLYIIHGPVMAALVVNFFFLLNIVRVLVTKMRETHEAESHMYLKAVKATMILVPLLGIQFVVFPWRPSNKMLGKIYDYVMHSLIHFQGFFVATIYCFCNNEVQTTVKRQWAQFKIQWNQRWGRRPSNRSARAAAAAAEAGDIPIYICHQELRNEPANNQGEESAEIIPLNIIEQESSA
T1 sequence (looked up) 2: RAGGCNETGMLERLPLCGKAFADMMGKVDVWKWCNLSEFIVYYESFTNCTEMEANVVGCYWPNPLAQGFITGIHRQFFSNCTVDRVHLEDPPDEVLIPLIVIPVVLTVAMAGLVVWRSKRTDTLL

T2: human calcitonin receptor (human, UniProt P30988 25-474)
T2 sequence (looked up): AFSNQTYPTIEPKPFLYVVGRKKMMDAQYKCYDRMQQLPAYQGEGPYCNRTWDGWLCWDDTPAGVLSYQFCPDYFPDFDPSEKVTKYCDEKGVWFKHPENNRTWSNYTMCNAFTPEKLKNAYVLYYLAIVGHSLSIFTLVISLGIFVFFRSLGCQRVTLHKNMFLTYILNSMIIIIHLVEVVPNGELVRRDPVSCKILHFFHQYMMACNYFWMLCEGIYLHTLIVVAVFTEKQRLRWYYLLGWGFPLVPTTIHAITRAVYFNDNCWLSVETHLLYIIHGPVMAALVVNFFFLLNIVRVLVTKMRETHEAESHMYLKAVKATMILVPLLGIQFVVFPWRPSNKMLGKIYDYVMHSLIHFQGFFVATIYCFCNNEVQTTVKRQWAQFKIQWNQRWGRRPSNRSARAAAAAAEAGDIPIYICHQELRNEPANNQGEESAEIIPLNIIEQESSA


Legend:
[1] = biological target: T1, human amylin receptor (calcitonin …); test: cell-based or functional assay
[2] = biological target: T2, human calcitonin receptor; test: cell-based or functional assay

| Binder | EC50 (cAMP production) [1] [pM] | Ratio (EC50 hCTR / EC50 hAMYR3) [1] | EC50 (cAMP production) [2] [pM] |
| --- | --- | --- | --- |
| K([γGlu-C18 diacid])KCNTATCATQRLANFLVHSS[Aib]NFGPILPPTNVGSETY-NH2 (disulfide 3-8; N-terminus assumed; SMILES CC[C@H](C)[C@H](NC(=O)[C@@H]1CCCN1C(=O)CNC(=O)[C@H](Cc1ccccc1)NC(=O)[C@H](CC(N)=O)NC(=O)C(C)(C)NC(=O)[C@H](CO)NC(=O)[C@H](CO)NC(=O)[C@H](Cc1c[nH]cn1)NC(=O)[C@@H](NC(=O)[C@H](CC(C)C)NC(=O)[C@H](Cc1ccccc1)NC(=O)[C@H](CC(N)=O)NC(=O)[C@H](C)NC(=O)[C@H](CC(C)C)NC(=O)[C@H](CCCNC(=N)N)NC(=O)[C@H](CCC(N)=O)NC(=O)[C@@H](NC(=O)[C@H](C)NC(=O)[C@@H]1CSSC[C@H](NC(=O)[C@H](CCCCN)NC(=O)[C@@H](N)CCCCNC(=O)CC[C@H](NC(=O)CCCCCCCCCCCCCCCCC(=O)O)C(=O)O)C(=O)N[C@@H](CC(N)=O)C(=O)N[C@@H]([C@@H](C)O)C(=O)N[C@@H](C)C(=O)N[C@@H]([C@@H](C)O)C(=O)N1)[C@@H](C)O)C(C)C)C(=O)N[C@@H](CC(C)C)C(=O)N1CCC[C@H]1C(=O)N1CCC[C@H]1C(=O)N[C@H](C(=O)N[C@@H](CC(N)=O)C(=O)N[C@H](C(=O)NCC(=O)N[C@@H](CO)C(=O)N[C@@H](CCC(=O)O)C(=O)N[C@H](C(=O)N[C@@H](Cc1ccc(O)cc1)C(N)=O)[C@@H](C)O)C(C)C)[C@@H](C)O) [Peptide 42 (SEQ ID NO: 42)] | 470 | 6 | 2950 |
| K([AEEA-AEEA-γGlu-C18 diacid])CNTATCATQRLANFLRHSS[Aib]NFGPILPPTEVGSNTY-NH2 (disulfide 2-7; N-terminus assumed; SMILES CC[C@H](C)[C@H](NC(=O)[C@@H]1CCCN1C(=O)CNC(=O)[C@H](Cc1ccccc1)NC(=O)[C@H](CC(N)=O)NC(=O)C(C)(C)NC(=O)[C@H](CO)NC(=O)[C@H](CO)NC(=O)[C@H](Cc1c[nH]cn1)NC(=O)[C@H](CCCNC(=N)N)NC(=O)[C@H](CC(C)C)NC(=O)[C@H](Cc1ccccc1)NC(=O)[C@H](CC(N)=O)NC(=O)[C@H](C)NC(=O)[C@H](CC(C)C)NC(=O)[C@H](CCCNC(=N)N)NC(=O)[C@H](CCC(N)=O)NC(=O)[C@@H](NC(=O)[C@H](C)NC(=O)[C@@H]1CSSC[C@H](NC(=O)[C@@H](N)CCCCNC(=O)COCCOCCNC(=O)COCCOCCNC(=O)CC[C@H](NC(=O)CCCCCCCCCCCCCCCCC(=O)O)C(=O)O)C(=O)N[C@@H](CC(N)=O)C(=O)N[C@@H]([C@@H](C)O)C(=O)N[C@@H](C)C(=O)N[C@@H]([C@@H](C)O)C(=O)N1)[C@@H](C)O)C(=O)N[C@@H](CC(C)C)C(=O)N1CCC[C@H]1C(=O)N1CCC[C@H]1C(=O)N[C@H](C(=O)N[C@@H](CCC(=O)O)C(=O)N[C@H](C(=O)NCC(=O)N[C@@H](CO)C(=O)N[C@@H](CC(N)=O)C(=O)N[C@H](C(=O)N[C@@H](Cc1ccc(O)cc1)C(N)=O)[C@@H](C)O)C(C)C)[C@@H](C)O) [Peptide 45 (SEQ ID NO: 45)] | 588 | 29 | 16900 |
| K([γGlu-C18 diacid])KCNTATCATQRLANFLSHSS[Aib]NFGPILPPTNVGSNTY-NH2 (disulfide 3-8; N-terminus assumed; SMILES CC[C@H](C)[C@H](NC(=O)[C@@H]1CCCN1C(=O)CNC(=O)[C@H](Cc1ccccc1)NC(=O)[C@H](CC(N)=O)NC(=O)C(C)(C)NC(=O)[C@H](CO)NC(=O)[C@H](CO)NC(=O)[C@H](Cc1c[nH]cn1)NC(=O)[C@H](CO)NC(=O)[C@H](CC(C)C)NC(=O)[C@H](Cc1ccccc1)NC(=O)[C@H](CC(N)=O)NC(=O)[C@H](C)NC(=O)[C@H](CC(C)C)NC(=O)[C@H](CCCNC(=N)N)NC(=O)[C@H](CCC(N)=O)NC(=O)[C@@H](NC(=O)[C@H](C)NC(=O)[C@@H]1CSSC[C@H](NC(=O)[C@H](CCCCN)NC(=O)[C@@H](N)CCCCNC(=O)CC[C@H](NC(=O)CCCCCCCCCCCCCCCCC(=O)O)C(=O)O)C(=O)N[C@@H](CC(N)=O)C(=O)N[C@@H]([C@@H](C)O)C(=O)N[C@@H](C)C(=O)N[C@@H]([C@@H](C)O)C(=O)N1)[C@@H](C)O)C(=O)N[C@@H](CC(C)C)C(=O)N1CCC[C@H]1C(=O)N1CCC[C@H]1C(=O)N[C@H](C(=O)N[C@@H](CC(N)=O)C(=O)N[C@H](C(=O)NCC(=O)N[C@@H](CO)C(=O)N[C@@H](CC(N)=O)C(=O)N[C@H](C(=O)N[C@@H](Cc1ccc(O)cc1)C(N)=O)[C@@H](C)O)C(C)C)[C@@H](C)O) [Peptide 37 (SEQ ID NO: 37)] | 249 | 8 | 1960 |
| K([γGlu-C18 diacid])KCNTATCATQRLANFL[Aib]HSS[Aib]NFGPILPPTNVGSNTY-NH2 (disulfide 3-8; N-terminus assumed; SMILES CC[C@H](C)[C@H](NC(=O)[C@@H]1CCCN1C(=O)CNC(=O)[C@H](Cc1ccccc1)NC(=O)[C@H](CC(N)=O)NC(=O)C(C)(C)NC(=O)[C@H](CO)NC(=O)[C@H](CO)NC(=O)[C@H](Cc1c[nH]cn1)NC(=O)C(C)(C)NC(=O)[C@H](CC(C)C)NC(=O)[C@H](Cc1ccccc1)NC(=O)[C@H](CC(N)=O)NC(=O)[C@H](C)NC(=O)[C@H](CC(C)C)NC(=O)[C@H](CCCNC(=N)N)NC(=O)[C@H](CCC(N)=O)NC(=O)[C@@H](NC(=O)[C@H](C)NC(=O)[C@@H]1CSSC[C@H](NC(=O)[C@H](CCCCN)NC(=O)[C@@H](N)CCCCNC(=O)CC[C@H](NC(=O)CCCCCCCCCCCCCCCCC(=O)O)C(=O)O)C(=O)N[C@@H](CC(N)=O)C(=O)N[C@@H]([C@@H](C)O)C(=O)N[C@@H](C)C(=O)N[C@@H]([C@@H](C)O)C(=O)N1)[C@@H](C)O)C(=O)N[C@@H](CC(C)C)C(=O)N1CCC[C@H]1C(=O)N1CCC[C@H]1C(=O)N[C@H](C(=O)N[C@@H](CC(N)=O)C(=O)N[C@H](C(=O)NCC(=O)N[C@@H](CO)C(=O)N[C@@H](CC(N)=O)C(=O)N[C@H](C(=O)N[C@@H](Cc1ccc(O)cc1)C(N)=O)[C@@H](C)O)C(C)C)[C@@H](C)O) [Peptide 36 (SEQ ID NO: 36)] | 331 | 19 | 6390 |
| K([γGlu-γGlu-C18 diacid])CNTATCATQRLANFLVHSSNNFGPILPPTNVGSNTY-NH2 (disulfide 2-7) [Peptide 5 (SEQ ID NO: 5)] | 174 | 21 | 3600 |
| K([AEEA-AEEA-γGlu-C18 diacid])CNTATCATQRLANFLVHSSNNFGPILPPTNVGSNTY-NH2 (disulfide 2-7) [Peptide 6 (SEQ ID NO: 6)] | 68 | 5 | 310 |
| K([γGlu-C18 diacid])KCNTATCATQRLANFLEHSS[Aib]NFGPILPPTNVGSNTY-NH2 (disulfide 3-8; N-terminus assumed; SMILES CC[C@H](C)[C@H](NC(=O)[C@@H]1CCCN1C(=O)CNC(=O)[C@H](Cc1ccccc1)NC(=O)[C@H](CC(N)=O)NC(=O)C(C)(C)NC(=O)[C@H](CO)NC(=O)[C@H](CO)NC(=O)[C@H](Cc1c[nH]cn1)NC(=O)[C@H](CCC(=O)O)NC(=O)[C@H](CC(C)C)NC(=O)[C@H](Cc1ccccc1)NC(=O)[C@H](CC(N)=O)NC(=O)[C@H](C)NC(=O)[C@H](CC(C)C)NC(=O)[C@H](CCCNC(=N)N)NC(=O)[C@H](CCC(N)=O)NC(=O)[C@@H](NC(=O)[C@H](C)NC(=O)[C@@H]1CSSC[C@H](NC(=O)[C@H](CCCCN)NC(=O)[C@@H](N)CCCCNC(=O)CC[C@H](NC(=O)CCCCCCCCCCCCCCCCC(=O)O)C(=O)O)C(=O)N[C@@H](CC(N)=O)C(=O)N[C@@H]([C@@H](C)O)C(=O)N[C@@H](C)C(=O)N[C@@H]([C@@H](C)O)C(=O)N1)[C@@H](C)O)C(=O)N[C@@H](CC(C)C)C(=O)N1CCC[C@H]1C(=O)N1CCC[C@H]1C(=O)N[C@H](C(=O)N[C@@H](CC(N)=O)C(=O)N[C@H](C(=O)NCC(=O)N[C@@H](CO)C(=O)N[C@@H](CC(N)=O)C(=O)N[C@H](C(=O)N[C@@H](Cc1ccc(O)cc1)C(N)=O)[C@@H](C)O)C(C)C)[C@@H](C)O) [Peptide 39 (SEQ ID NO: 39)] | 1050 | 10 | 10400 |
